Measured values as given in paper PMC8995368 (Structure (London, England : 1993), 2022).

B1: Myxococcus xanthus encapsulin cargo protein EncB (ferritin-like protein) (natural protein, M. xanthus, UniProt Q1D6H3 1-158, looked up)
chain: MAGPPDSDLDDVARIRLVLARELETINEYEAYARASSNPEVRAFFQHLAAEEKEHVSEAVHMLRMLDSGQNDHFAKPFVPGHFQAAEAPAPATVHVPTPDGPAFSVNGRNGRLPSEPPTSLPPQRLLYGLPAPPPAVESHPLTVGSLRRGGGGSGSGR
B2: Myxococcus xanthus encapsulin cargo protein EncC (ferritin-like protein) (natural protein, M. xanthus)
chain: MPQTNPFHSLVPRKMTDTELARSIRLNIEAELDAINLYAAHIDATDNEDAKAILQHVMDEEREHAALFWELIARLDPEQAAHAKEAVEKYRLITSGASHEAVEAVGKEGAAPSPADVTPEKRLTVGSLRR

Target: the molecule itself
Assay: crystal structure

Protein	stoichiometry N
B1	10
B2	10
